# From patent publication US10947296B2, “Fusion protein Slit2D2(C386S)-HSA and use thereof in treatment of fibrotic diseases” (SUZHOU THINKING POWER BIOTECHNOLOGY CO., LTD., priority 2016, dated 2021)
# Tested on: pulmonary fibrosis model
# Assay: Efficacy on bleomycin-induced pulmonary fibrosis model
# Format: in vivo
# Parameters: body weight of the animals (Mean ± SEM) / Weight of the left lung (Mean ± SEM) / Volume of the left lung (Mean ± SEM): unit not given here
# Details: for Volume of the left lung (Mean ± SEM) / Weight of the left lung (Mean ± SEM): after formalin perfusion, day 14
# Method: Animals were anesthetized by inhaling isoflurane. After confirmation of anesthesia, the animals were sterilized, then the neck skin was cut, the muscles were bluntly separated to expose the trachea, and bleomycin (dosage: 3 mg/kg, volume: 1.0 mL/kg) was directly injected between the tracheal rings. After the operation, the animals were placed in a 37° C. electric blanket to keep warm until the animals were completely awakened. After confirming that they were able to eat and drink freely, the animals were returned to the cage for normal feeding.
# In this experiment, there were four groups, i.e., model group (experimental group-1, […]), PFD group (experimental group-2, n=6), Slit2D2(C386S)-HSA-1 mg/kg (experimental group-3, n=6), and Slit2D2(C386S)-HSA-5 mg/kg (experimental group-4, n=6).
# In this experiment, the positive control drug (PFD) was given to rats by gavage twice a day, which was started on the day of modeling, and administered continuously for 14 days. The test compound (Slit2D2(C386S)-HSA) was given intravenously once every other day, which was started on the day of modeling, and a total of seven doses were administered (as shown in table 6).
# Physiological observation of the experimental animals: changes in body weight of the animals were measured (body weight was measured once a day before administration); and the death rate of animals during the test period was monitored.
# Animals were euthanized 24 hours after the last administration on the 14th day of modeling. After confirming the death of the animals, the left lung was fixed by intrapulmonary infusion of formalin, and the volume and weight of the left lung after perfusion were measured for relevant examination of the pulmonary pathology.
# General pathological examination: After the perfusion with an equal amount of formalin in the left lung, the wet weight of left lung after perfusion was weighed/recorded with a micro-balance; and the volume of left lung after perfusion was measured and recorded using a micro-measuring cup.
# Pathological examination of lung tissue: The whole lung was dehydrated. Lung paraffin sections were made with paraffin blocks. […] HE staining and Masson Trichrome staining were performed according to pathological staining SOP, and whole section scanning was performed using a Digital Pathscope slice scanner. Pathological analysis and scoring of changes in damage and inflammation of terminal bronchioles and accompanying small pulmonary artery at the periphery of the lesions (as shown in Tables 7 and 8 and FIG. 7) were performed using the HE-stained sections. Lesion area calculation, lesion pathology analysis and scoring were performed with the Masson Trichrome-stained sections (as shown in Table 9 and FIG. 8).
# The mean±sd or mean±sem was calculated using the graphpad prism software, and the significant difference test was performed using t-test, one-way ANOVA and two-way ANOVA test. A significant difference between the two groups was considered at p<0.05.
substance,measurement,setting,value
Slit2D2(C386S)-HSA: Fusion protein of the Slit2 D2 domain with C386S mutation linked to human serum albumin; amino acid sequence SEQ ID NO: 3,"inhibiting pulmonary fibrosis, compared with positive compound (PFD)","5 mg/kg dose group, iv Q2D",superior to the positive compound (PFD)
same,Volume of the left lung (Mean ± SEM),1mpk (BID),1.27 ± 0.02
same,Weight of the left lung (Mean ± SEM),1mpk (BID),1.20 ± 0.03
same,body weight of the animals (Mean ± SEM),"1mpk Q2D iv, Day 1",273.8 ± 3.1
same,body weight of the animals (Mean ± SEM),"1mpk Q2D iv, Day 3",255.2 ± 3.2
same,body weight of the animals (Mean ± SEM),"1mpk Q2D iv, Day 5",262.8 ± 4.7
same,body weight of the animals (Mean ± SEM),"1mpk Q2D iv, Day 7",276.7 ± 5.4
same,body weight of the animals (Mean ± SEM),"1mpk Q2D iv, Day 9",290.7 ± 6.3
same,body weight of the animals (Mean ± SEM),"1mpk Q2D iv, Day 11",302.7 ± 6.9
same,body weight of the animals (Mean ± SEM),"1mpk Q2D iv, Day 13",310.3 ± 7.8
same,Volume of the left lung (Mean ± SEM),5mpk (BID),1.32 ± 0.03
same,Weight of the left lung (Mean ± SEM),5mpk (BID),1.31 ± 0.07
same,body weight of the animals (Mean ± SEM),"5mpk Q2D iv, Day 1",272.7 ± 1.8
same,body weight of the animals (Mean ± SEM),"5mpk Q2D iv, Day 3",251.8 ± 2.3
same,body weight of the animals (Mean ± SEM),"5mpk Q2D iv, Day 5",245.0 ± 5.0
same,body weight of the animals (Mean ± SEM),"5mpk Q2D iv, Day 7",258.3 ± 4.4
same,body weight of the animals (Mean ± SEM),"5mpk Q2D iv, Day 9",272.5 ± 5.0
same,body weight of the animals (Mean ± SEM),"5mpk Q2D iv, Day 11",284.3 ± 5.9
same,body weight of the animals (Mean ± SEM),"5mpk Q2D iv, Day 13",292.2 ± 5.6
same,inhibition on the progression of pulmonary fibrosis,"intravenous, every other day for 2 weeks, 1 and 5 mg/kg","significant inhibition on the progression of pulmonary fibrosis, with a dose-dependent trend"
